According to patent US20090170751A1:

Biological target: Plasma fibronectin, affinity purified from human plasma (human) (UniProt P02751)
Assay: cell-based or functional assay

Recombinant Anastellin, P02751 631-703, sequence (P02751 other isoform, or with tags, fused parts or gaps limits assumed): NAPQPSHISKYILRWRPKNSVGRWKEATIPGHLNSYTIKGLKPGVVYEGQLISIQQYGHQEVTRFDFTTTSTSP
Plasma fibronectin, affinity purified from human plasma (human), sequence (P02751 32-2477): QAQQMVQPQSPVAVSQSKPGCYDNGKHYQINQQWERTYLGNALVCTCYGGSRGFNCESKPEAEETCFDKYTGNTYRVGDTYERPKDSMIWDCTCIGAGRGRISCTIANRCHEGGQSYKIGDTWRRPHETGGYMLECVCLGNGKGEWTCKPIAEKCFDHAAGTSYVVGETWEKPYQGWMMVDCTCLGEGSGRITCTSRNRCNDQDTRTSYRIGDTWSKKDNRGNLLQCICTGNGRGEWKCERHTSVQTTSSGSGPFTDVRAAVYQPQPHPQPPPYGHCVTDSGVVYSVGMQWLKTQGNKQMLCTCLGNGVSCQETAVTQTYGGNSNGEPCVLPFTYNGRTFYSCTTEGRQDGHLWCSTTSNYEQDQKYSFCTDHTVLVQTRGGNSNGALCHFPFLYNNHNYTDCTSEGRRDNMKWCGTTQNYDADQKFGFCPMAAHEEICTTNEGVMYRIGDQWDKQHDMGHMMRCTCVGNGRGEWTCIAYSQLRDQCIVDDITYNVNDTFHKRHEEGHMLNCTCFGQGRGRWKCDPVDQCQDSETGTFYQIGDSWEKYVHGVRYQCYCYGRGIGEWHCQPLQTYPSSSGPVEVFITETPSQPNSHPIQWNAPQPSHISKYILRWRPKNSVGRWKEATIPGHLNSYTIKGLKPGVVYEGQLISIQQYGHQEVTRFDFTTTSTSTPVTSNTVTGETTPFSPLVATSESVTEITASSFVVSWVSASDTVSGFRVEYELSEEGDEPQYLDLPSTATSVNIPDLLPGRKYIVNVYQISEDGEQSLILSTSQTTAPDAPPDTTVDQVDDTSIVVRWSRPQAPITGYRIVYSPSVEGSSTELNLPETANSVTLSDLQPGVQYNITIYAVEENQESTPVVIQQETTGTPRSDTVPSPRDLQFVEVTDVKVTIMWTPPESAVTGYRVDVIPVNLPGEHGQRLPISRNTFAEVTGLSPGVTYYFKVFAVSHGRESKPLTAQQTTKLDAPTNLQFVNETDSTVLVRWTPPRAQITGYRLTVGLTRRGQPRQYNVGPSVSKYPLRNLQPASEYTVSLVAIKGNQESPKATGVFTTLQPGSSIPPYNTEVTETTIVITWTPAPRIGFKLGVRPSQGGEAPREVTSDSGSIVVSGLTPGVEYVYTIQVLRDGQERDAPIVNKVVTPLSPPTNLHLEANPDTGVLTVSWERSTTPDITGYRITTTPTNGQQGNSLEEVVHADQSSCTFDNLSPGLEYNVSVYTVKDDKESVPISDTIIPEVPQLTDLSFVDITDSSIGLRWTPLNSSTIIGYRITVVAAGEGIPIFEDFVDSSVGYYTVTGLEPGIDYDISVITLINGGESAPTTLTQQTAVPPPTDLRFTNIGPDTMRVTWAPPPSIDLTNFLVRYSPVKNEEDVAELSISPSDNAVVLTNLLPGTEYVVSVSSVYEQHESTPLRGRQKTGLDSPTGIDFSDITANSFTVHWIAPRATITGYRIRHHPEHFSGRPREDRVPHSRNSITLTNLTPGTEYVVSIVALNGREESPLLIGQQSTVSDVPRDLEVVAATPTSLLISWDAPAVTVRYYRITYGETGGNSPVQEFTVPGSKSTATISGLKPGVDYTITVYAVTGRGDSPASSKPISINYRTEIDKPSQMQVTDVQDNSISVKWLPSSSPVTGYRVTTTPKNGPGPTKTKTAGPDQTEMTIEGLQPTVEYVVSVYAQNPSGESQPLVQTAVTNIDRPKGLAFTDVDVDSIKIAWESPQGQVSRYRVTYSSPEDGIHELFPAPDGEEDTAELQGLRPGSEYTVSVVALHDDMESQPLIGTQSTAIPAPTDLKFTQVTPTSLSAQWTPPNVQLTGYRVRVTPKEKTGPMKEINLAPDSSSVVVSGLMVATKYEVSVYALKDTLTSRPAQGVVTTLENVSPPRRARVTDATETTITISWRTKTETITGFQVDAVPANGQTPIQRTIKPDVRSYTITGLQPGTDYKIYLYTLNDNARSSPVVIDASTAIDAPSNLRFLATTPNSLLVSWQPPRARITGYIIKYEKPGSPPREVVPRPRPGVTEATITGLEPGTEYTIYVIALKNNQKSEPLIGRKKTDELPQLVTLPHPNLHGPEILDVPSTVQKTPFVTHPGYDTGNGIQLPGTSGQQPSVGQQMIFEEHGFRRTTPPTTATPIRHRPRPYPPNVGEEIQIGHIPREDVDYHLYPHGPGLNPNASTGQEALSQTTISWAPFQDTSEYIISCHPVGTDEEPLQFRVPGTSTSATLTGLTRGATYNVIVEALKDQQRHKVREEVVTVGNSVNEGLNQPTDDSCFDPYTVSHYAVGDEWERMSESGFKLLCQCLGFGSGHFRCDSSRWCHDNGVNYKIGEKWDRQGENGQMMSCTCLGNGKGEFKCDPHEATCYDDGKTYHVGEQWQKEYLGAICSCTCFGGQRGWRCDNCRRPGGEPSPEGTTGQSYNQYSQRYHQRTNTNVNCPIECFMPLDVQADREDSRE

Substance: Recombinant Anastellin, P02751 631-703
- fibronectin aggregation, increase in absorbance at 600 nm: > 20 µM
